What follows are binders tested against T1, human C5 (human, UniProt P01031 19-673; P01031 678-1676, Beta and alpha chains are disulfide-linked and the protein is glycosylated.) (assay: Biacore, captured antibody, pH 7.4, 37 C;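 note: biacore binding response of anti-C5 antibody light chain variants captured on chip with human C5 injected, ACES running buffer containing 1.2 mM CaCl₂, parent light chain antibody set to 100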).
T1 construct: Either in-house recombinant C5 or plasma derived C5 (CALBIOCHEM) was used; also called recombinant human C5; plasma derived human C5
Method: The light chain variants were tested for the binding affinity to C5 at pH 7.4 and at 37 degrees C. using Biacore T200 instrument (GE Healthcare) or Biacore 4000 instrument (GE Healthcare). […] Anti-C5 antibodies were captured on an immobilized molecule, and then human C5 was injected. The running buffer used was pH 7.4 ACES Buffer containing 1.2 mM Ca (20 mM ACES, 150 mM NaCl, 1.2 mM CaCl₂, 0.05% Tween 20). A value, % binding, was determined by normalizing binding response with that of antibody comprising parent light chain as 100.

Binder	% binding (parent = 100) [%]
CFP0015 15L 92S (antibody, V domains shown) VH: QVQLLESGGGLVQPGGSLRLSCAASGFTFSSYAMSWVRQAPGKGLEWVSAISGSGGSTYYADSVKGRFTISRDNSKNTLYLQMNSLRAEDTAVYYCARGDQIWYDQWYYFDMWGQGTLVTVSS VL: DIQMTQSPSSLSASVGDRVTITCRASQSIEDDLAWYQQKPGKAPKLLIYEASNLQSGVPSRFSGSGSGTDFTLTISSLQPEDFATYYCQQYSSSPLTFGQGTKVEIK	51.3
CFP0015 15L 93G (antibody, V domains shown) VH: QVQLLESGGGLVQPGGSLRLSCAASGFTFSSYAMSWVRQAPGKGLEWVSAISGSGGSTYYADSVKGRFTISRDNSKNTLYLQMNSLRAEDTAVYYCARGDQIWYDQWYYFDMWGQGTLVTVSS VL: DIQMTQSPSSLSASVGDRVTITCRASQSIEDDLAWYQQKPGKAPKLLIYEASNLQSGVPSRFSGSGSGTDFTLTISSLQPEDFATYYCQQYDGSPLTFGQGTKVEIK	78.6
CFP0015 15L 93R (antibody, V domains shown) VH: QVQLLESGGGLVQPGGSLRLSCAASGFTFSSYAMSWVRQAPGKGLEWVSAISGSGGSTYYADSVKGRFTISRDNSKNTLYLQMNSLRAEDTAVYYCARGDQIWYDQWYYFDMWGQGTLVTVSS VL: DIQMTQSPSSLSASVGDRVTITCRASQSIEDDLAWYQQKPGKAPKLLIYEASNLQSGVPSRFSGSGSGTDFTLTISSLQPEDFATYYCQQYDRSPLTFGQGTKVEIK	96
CFP0015 15L 92T (antibody, V domains shown) VH: QVQLLESGGGLVQPGGSLRLSCAASGFTFSSYAMSWVRQAPGKGLEWVSAISGSGGSTYYADSVKGRFTISRDNSKNTLYLQMNSLRAEDTAVYYCARGDQIWYDQWYYFDMWGQGTLVTVSS VL: DIQMTQSPSSLSASVGDRVTITCRASQSIEDDLAWYQQKPGKAPKLLIYEASNLQSGVPSRFSGSGSGTDFTLTISSLQPEDFATYYCQQYTSSPLTFGQGTKVEIK	74.1
CFP0015 15L 94T (antibody, V domains shown) VH: QVQLLESGGGLVQPGGSLRLSCAASGFTFSSYAMSWVRQAPGKGLEWVSAISGSGGSTYYADSVKGRFTISRDNSKNTLYLQMNSLRAEDTAVYYCARGDQIWYDQWYYFDMWGQGTLVTVSS VL: DIQMTQSPSSLSASVGDRVTITCRASQSIEDDLAWYQQKPGKAPKLLIYEASNLQSGVPSRFSGSGSGTDFTLTISSLQPEDFATYYCQQYDSTPLTFGQGTKVEIK	53.1
CFP0015 15L 94W (antibody, V domains shown) VH: QVQLLESGGGLVQPGGSLRLSCAASGFTFSSYAMSWVRQAPGKGLEWVSAISGSGGSTYYADSVKGRFTISRDNSKNTLYLQMNSLRAEDTAVYYCARGDQIWYDQWYYFDMWGQGTLVTVSS VL: DIQMTQSPSSLSASVGDRVTITCRASQSIEDDLAWYQQKPGKAPKLLIYEASNLQSGVPSRFSGSGSGTDFTLTISSLQPEDFATYYCQQYDSWPLTFGQGTKVEIK	4.5
CFP0015 15L 94F (antibody, V domains shown) VH: QVQLLESGGGLVQPGGSLRLSCAASGFTFSSYAMSWVRQAPGKGLEWVSAISGSGGSTYYADSVKGRFTISRDNSKNTLYLQMNSLRAEDTAVYYCARGDQIWYDQWYYFDMWGQGTLVTVSS VL: DIQMTQSPSSLSASVGDRVTITCRASQSIEDDLAWYQQKPGKAPKLLIYEASNLQSGVPSRFSGSGSGTDFTLTISSLQPEDFATYYCQQYDSFPLTFGQGTKVEIK	10.6
CFP0015 15L 93D (antibody, V domains shown) VH: QVQLLESGGGLVQPGGSLRLSCAASGFTFSSYAMSWVRQAPGKGLEWVSAISGSGGSTYYADSVKGRFTISRDNSKNTLYLQMNSLRAEDTAVYYCARGDQIWYDQWYYFDMWGQGTLVTVSS VL: DIQMTQSPSSLSASVGDRVTITCRASQSIEDDLAWYQQKPGKAPKLLIYEASNLQSGVPSRFSGSGSGTDFTLTISSLQPEDFATYYCQQYDDSPLTFGQGTKVEIK	45.1
CFP0015 15L 93N (antibody, V domains shown) VH: QVQLLESGGGLVQPGGSLRLSCAASGFTFSSYAMSWVRQAPGKGLEWVSAISGSGGSTYYADSVKGRFTISRDNSKNTLYLQMNSLRAEDTAVYYCARGDQIWYDQWYYFDMWGQGTLVTVSS VL: DIQMTQSPSSLSASVGDRVTITCRASQSIEDDLAWYQQKPGKAPKLLIYEASNLQSGVPSRFSGSGSGTDFTLTISSLQPEDFATYYCQQYDNSPLTFGQGTKVEIK	80.4

The next lines start with the values.

% binding (parent = 100) [%]	Binder
11.8	CFP0015 15L 96F (antibody, V domains shown) VH: QVQLLESGGGLVQPGGSLRLSCAASGFTFSSYAMSWVRQAPGKGLEWVSAISGSGGSTYYADSVKGRFTISRDNSKNTLYLQMNSLRAEDTAVYYCARGDQIWYDQWYYFDMWGQGTLVTVSS VL: DIQMTQSPSSLSASVGDRVTITCRASQSIEDDLAWYQQKPGKAPKLLIYEASNLQSGVPSRFSGSGSGTDFTLTISSLQPEDFATYYCQQYDSSPFTFGQGTKVEIK
50.7	CFP0015 15L 96H (antibody, V domains shown) VH: QVQLLESGGGLVQPGGSLRLSCAASGFTFSSYAMSWVRQAPGKGLEWVSAISGSGGSTYYADSVKGRFTISRDNSKNTLYLQMNSLRAEDTAVYYCARGDQIWYDQWYYFDMWGQGTLVTVSS VL: DIQMTQSPSSLSASVGDRVTITCRASQSIEDDLAWYQQKPGKAPKLLIYEASNLQSGVPSRFSGSGSGTDFTLTISSLQPEDFATYYCQQYDSSPHTFGQGTKVEIK
46.1	CFP0015 15L 94Y (antibody, V domains shown) VH: QVQLLESGGGLVQPGGSLRLSCAASGFTFSSYAMSWVRQAPGKGLEWVSAISGSGGSTYYADSVKGRFTISRDNSKNTLYLQMNSLRAEDTAVYYCARGDQIWYDQWYYFDMWGQGTLVTVSS VL: DIQMTQSPSSLSASVGDRVTITCRASQSIEDDLAWYQQKPGKAPKLLIYEASNLQSGVPSRFSGSGSGTDFTLTISSLQPEDFATYYCQQYDSYPLTFGQGTKVEIK
103	CFP0015 15L 96I (antibody, V domains shown) VH: QVQLLESGGGLVQPGGSLRLSCAASGFTFSSYAMSWVRQAPGKGLEWVSAISGSGGSTYYADSVKGRFTISRDNSKNTLYLQMNSLRAEDTAVYYCARGDQIWYDQWYYFDMWGQGTLVTVSS VL: DIQMTQSPSSLSASVGDRVTITCRASQSIEDDLAWYQQKPGKAPKLLIYEASNLQSGVPSRFSGSGSGTDFTLTISSLQPEDFATYYCQQYDSSPITFGQGTKVEIK
49	CFP0015 15L 96P (antibody, V domains shown) VH: QVQLLESGGGLVQPGGSLRLSCAASGFTFSSYAMSWVRQAPGKGLEWVSAISGSGGSTYYADSVKGRFTISRDNSKNTLYLQMNSLRAEDTAVYYCARGDQIWYDQWYYFDMWGQGTLVTVSS VL: DIQMTQSPSSLSASVGDRVTITCRASQSIEDDLAWYQQKPGKAPKLLIYEASNLQSGVPSRFSGSGSGTDFTLTISSLQPEDFATYYCQQYDSSPPTFGQGTKVEIK
3.6	CFP0015 15L 96W (antibody, V domains shown) VH: QVQLLESGGGLVQPGGSLRLSCAASGFTFSSYAMSWVRQAPGKGLEWVSAISGSGGSTYYADSVKGRFTISRDNSKNTLYLQMNSLRAEDTAVYYCARGDQIWYDQWYYFDMWGQGTLVTVSS VL: DIQMTQSPSSLSASVGDRVTITCRASQSIEDDLAWYQQKPGKAPKLLIYEASNLQSGVPSRFSGSGSGTDFTLTISSLQPEDFATYYCQQYDSSPWTFGQGTKVEIK

Reference: patent US20180016327A1 (Chugai, published 2018)
